Laboratory results published in PMC7060200, “Selective Binding of HSC70 and its Co-Chaperones to Structural Hotspots on CFTR” (Scientific Reports, 2020).

Columns and labels:
[1] = biological target: Fluorescent peptide FAM-1092-S (UniProt P13569); test: other fluorescence titration; 0.5 μM FAM-1092-S with varying concentrations of chaperone, 45 min; HSC70 in buffer G, DJA1 and DJA2 in buffer H; excitation 492 nm, emission 520 nm; one site total binding fit
[2] = biological target: CFTR peptide 1097-L, biotinylated (library form) (UniProt P13569); test: ELISA; titration of increasing concentrations of chaperone on immobilised biotinylated peptide; HSC70 with ATP; apparent Kd from linearised binding curves
[3] = biological target: HSC70 (HSPA8), His-tagged (UniProt P11142); test: ELISA; competition: 1 μM chaperone mixed with soluble peptide (titrated up to 100 μM, or fixed 100 μM in the screens) and bound to immobilised 1097-L; Kd of the competing peptide from linearised competition curves
[4] = biological target: DNAJA2 (DJA2), His-tagged (UniProt O60884); test: as above
[5] = biological target: DNAJA1 (DJA1), His-tagged (UniProt P31689); test: as above

Fluorescent peptide FAM-1092-S, sequence (P13569 whole entry, looked up, tested part not stated): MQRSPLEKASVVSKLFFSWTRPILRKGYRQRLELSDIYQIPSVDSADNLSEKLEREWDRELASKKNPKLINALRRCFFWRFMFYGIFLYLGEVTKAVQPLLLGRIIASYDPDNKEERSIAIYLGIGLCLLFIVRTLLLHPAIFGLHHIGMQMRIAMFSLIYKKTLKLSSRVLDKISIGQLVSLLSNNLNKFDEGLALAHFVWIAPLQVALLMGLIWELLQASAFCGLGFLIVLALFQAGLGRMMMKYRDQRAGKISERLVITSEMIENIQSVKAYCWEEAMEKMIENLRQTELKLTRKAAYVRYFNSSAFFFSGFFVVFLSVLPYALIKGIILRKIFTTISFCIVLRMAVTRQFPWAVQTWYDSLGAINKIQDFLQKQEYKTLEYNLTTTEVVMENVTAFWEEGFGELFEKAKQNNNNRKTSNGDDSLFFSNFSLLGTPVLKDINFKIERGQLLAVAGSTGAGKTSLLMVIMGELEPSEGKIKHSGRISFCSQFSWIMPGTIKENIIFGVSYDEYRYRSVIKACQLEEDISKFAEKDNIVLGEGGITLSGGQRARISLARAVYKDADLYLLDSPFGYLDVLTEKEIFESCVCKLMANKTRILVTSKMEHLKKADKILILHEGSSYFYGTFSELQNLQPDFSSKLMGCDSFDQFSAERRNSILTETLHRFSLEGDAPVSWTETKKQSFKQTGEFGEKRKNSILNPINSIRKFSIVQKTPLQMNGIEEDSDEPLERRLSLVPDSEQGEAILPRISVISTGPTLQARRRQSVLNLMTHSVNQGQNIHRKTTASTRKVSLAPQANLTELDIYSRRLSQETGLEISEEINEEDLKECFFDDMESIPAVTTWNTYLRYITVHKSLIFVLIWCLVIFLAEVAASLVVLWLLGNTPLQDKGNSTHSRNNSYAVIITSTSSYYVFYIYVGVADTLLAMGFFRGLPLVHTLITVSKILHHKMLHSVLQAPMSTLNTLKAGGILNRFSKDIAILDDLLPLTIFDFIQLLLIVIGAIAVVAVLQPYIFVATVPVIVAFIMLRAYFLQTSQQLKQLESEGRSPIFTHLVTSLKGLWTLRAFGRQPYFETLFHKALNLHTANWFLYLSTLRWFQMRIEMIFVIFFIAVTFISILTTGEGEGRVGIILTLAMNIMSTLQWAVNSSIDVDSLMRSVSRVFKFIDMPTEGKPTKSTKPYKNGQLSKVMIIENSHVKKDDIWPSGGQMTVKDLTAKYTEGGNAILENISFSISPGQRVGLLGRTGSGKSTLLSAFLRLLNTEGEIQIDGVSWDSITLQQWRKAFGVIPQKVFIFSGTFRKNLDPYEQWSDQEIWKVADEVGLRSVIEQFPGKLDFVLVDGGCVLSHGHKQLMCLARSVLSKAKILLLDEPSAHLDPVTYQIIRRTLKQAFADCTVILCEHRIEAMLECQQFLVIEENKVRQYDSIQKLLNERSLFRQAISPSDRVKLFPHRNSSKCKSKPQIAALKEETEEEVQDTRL
CFTR peptide 1092-S, sequence (P13569 whole entry, looked up, tested part not stated): as above
DNAJA2 (DJA2), His-tagged (UniProt O60884), sequence (O60884 whole entry): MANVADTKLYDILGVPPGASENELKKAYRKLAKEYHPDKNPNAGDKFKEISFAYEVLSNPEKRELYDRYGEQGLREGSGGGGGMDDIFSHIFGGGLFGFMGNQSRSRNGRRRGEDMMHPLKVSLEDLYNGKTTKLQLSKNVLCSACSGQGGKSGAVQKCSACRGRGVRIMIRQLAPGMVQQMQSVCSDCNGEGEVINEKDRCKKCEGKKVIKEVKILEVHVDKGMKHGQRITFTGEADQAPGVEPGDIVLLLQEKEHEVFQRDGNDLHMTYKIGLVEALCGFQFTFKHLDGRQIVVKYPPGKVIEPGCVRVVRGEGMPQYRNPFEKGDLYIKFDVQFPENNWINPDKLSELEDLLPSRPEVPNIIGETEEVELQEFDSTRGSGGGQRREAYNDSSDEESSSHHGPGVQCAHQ
DNAJA2 (DJA2), His-tagged (from UniProt O60884 1-412) (natural protein), sequence (O60884 whole entry): as above
HSC70 (HSPA8), His-tagged (UniProt P11142), sequence (P11142 whole entry): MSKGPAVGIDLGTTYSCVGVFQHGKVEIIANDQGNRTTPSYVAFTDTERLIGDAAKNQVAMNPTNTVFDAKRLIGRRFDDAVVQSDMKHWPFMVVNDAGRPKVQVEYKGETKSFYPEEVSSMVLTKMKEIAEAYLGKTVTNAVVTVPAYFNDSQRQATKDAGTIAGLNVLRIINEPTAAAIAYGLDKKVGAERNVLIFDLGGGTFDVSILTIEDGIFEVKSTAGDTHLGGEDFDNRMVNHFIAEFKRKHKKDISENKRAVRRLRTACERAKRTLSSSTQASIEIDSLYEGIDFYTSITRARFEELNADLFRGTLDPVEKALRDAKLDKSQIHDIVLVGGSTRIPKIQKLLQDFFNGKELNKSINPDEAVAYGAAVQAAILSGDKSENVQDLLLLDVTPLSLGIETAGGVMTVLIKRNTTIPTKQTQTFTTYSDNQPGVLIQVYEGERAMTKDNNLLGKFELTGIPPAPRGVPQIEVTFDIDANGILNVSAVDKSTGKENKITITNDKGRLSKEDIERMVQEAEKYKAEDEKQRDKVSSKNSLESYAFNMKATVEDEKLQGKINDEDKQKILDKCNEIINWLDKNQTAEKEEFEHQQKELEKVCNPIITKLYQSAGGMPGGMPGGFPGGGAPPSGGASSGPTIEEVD
HSC70 (HSPA8), His-tagged (from UniProt P11142 1-646) (natural protein), sequence (P11142 whole entry): as above

Substance	Kd [1]	Kd [2]	Kd [3]	Kd [4]	Kd [5]
CFTR peptide 1092-S (from UniProt P13569 1088-1096)			1260 nM	2620 nM	5470 nM
CFTR peptide 1097-L, soluble unmodified (from UniProt P13569 1090-1104)			602 nM	585 nM	2430 nM
DNAJA2 (DJA2), His-tagged (from UniProt O60884 1-412) (natural protein)	8460 nM	75 nM			

Second part, the substance after the results:

Kd [1]	Kd [2]	Kd [3]	Kd [4]	Kd [5]	Substance
3970 nM	167 nM				DNAJA1 (DJA1), His-tagged (from UniProt P31689 1-397) (natural protein)
6170 nM	58 nM				HSC70 (HSPA8), His-tagged (from UniProt P11142 1-646) (natural protein)
